# Reference: patent US11673947B2, “Target tissue-specific antigen-binding molecule” (Chugai Seiyaku Kabushiki Kaisha, priority 2012, dated 2023)
# Tested on: BaF/hIL6R (Ba/F3 cells expressing human IL-6 receptor)
# Assay: ADCC (chrome release) with human PBMC as effector cells against BaF/hIL6R cells
# Type: cell-based
# Method: Variant 6RNMSC1-2_F02 with increased effector activity (the heavy chain and light chain sequences are shown in SEQ ID NOs: 94 and 91, respectively) was used. At various concentrations of 6RNMSC1-2_F02, ADCC activity against hIL-6R-expressing cells was assayed in the presence or absence of kynurenine according to the method described in Reference Example 1.
# Furthermore, there is a difference in the kynurenine concentration between normal and tumor tissues, and thus it is preferable that the ADCC activity of an antibody is exerted against antigen-expressing tumor cells only at the kynurenine concentration in tumor tissues, while at the normal-tissue kynurenine concentration, the ADCC activity is impaired or not exerted. Then, 6RNMSC1-2_F02 was assessed for ADCC activity against hIL-6R-expressing cells at various kynurenine concentrations according to the method described in Reference Example 2. […] Furthermore, in contrast to the approximately 10% ADCC activity at 4 to 6 μM which is considered to be the kynurenine concentration in normal tissues, the ADCC activity at 30 to 40 μM which is considered to be the kynurenine concentration in tumor tissues was about 25%.
# Antibodies that bind antigens in a kynurenine-dependent manner were assessed for their ADCC activity against antigen-expressing cells at different antibody concentrations according to the method described below. Human peripheral blood mononuclear cells (hereinafter referred to as human PBMC) were used as effector cells to measure the ADCC activity of each test antibody as follows.
# Syringes pre-filled with 200 μl of 1000 units/ml heparin solution (Novo-Heparin 5000 units for Injection; Novo Nordisk) were used to collect 50 ml of peripheral blood from healthy volunteers (male adult) affiliated with Chugai Pharmaceutical Co. Ltd. The peripheral blood was diluted two-fold with PBS(−), and divided into four equal parts, each of which was transferred into a pre-centrifuged leukocyte separation tube Leucosep (Greiner Bio-One) containing 15 ml of Ficoll-Paque PLUS. The separation tubes containing an aliquot of the peripheral blood were centrifuged at 2150 rpm for ten minutes at room temperature. Then, the resulting mononuclear cell fractions were collected from the tubes. The cells in each fraction were washed once with RPMI-1640 (nacalai tesque) supplemented with 10% FBS (hereinafter referred to as 10% FBS/RPMI), and then suspended at a cell density of 1×10^7 cells/ml in 10% FBS/RPMI. The cell suspensions were used as the human PBMC solution in subsequent experiments. […]
# ADCC activity was assessed based on specific chrome release rate determined by chrome release assay. […]
molecule,measurement,setting,value
"6RNMSC1-2_F02: antibody that binds to hIL-6R in the presence of kynurenine; SEQ ID NOs: 86 and 87 (antibody, listed as Homo sapiens, V domains shown) VH: QVQLVQSGAEVKKPGSSVKVSCKASGGTFSSYAISWVRQAPGQGLEWMGGIIPIFGTANYAQKFQGRVTITADESTSTAYMELSSLRSEDTAVYYCARDAPVVARPRGAFDIWGQGTMVTVSS VL: DIVMTQTPLSSPVTLGQPASISCRSSQSLVHSDGNTYLSWLQQRPGQPPRLLIHEISNRFSGVPDRFSGSGAGTNFTLKISRVEAEDVGVYYCMQATQFPRTFGQGTKVEIK",ADCC activity,at 4 to 6 μM kynurenine (considered the concentration in normal tissues),approximately 10%
same,ADCC activity,at 30 to 40 μM kynurenine (considered the concentration in tumor tissues),about 25%
same,ADCC activity against hIL-6R-expressing cells,"in the presence of kynurenine, various antibody concentrations, variant with increased effector activity",induced by 6RNMSC1-2_F02 in an antibody concentration-dependent manner
same,ADCC activity against hIL-6R-expressing cells at various kynurenine concentrations,various kynurenine concentrations,kynurenine concentration-dependent manner
